Results on three molecules are retold here after PMC5385343, “Crystal Structure of Glyceraldehyde-3-Phosphate Dehydrogenase from the Gram-Positive Bacterial Pathogen A. vaginae, an Immunoevasive Factor that Interacts with the Human C5a Anaphylatoxin” (Frontiers in Microbiology, 2017).

The target of data set [1] is T1, AvGAPDH (Fannyhessea vaginae, UniProt F1T6A5).
T1 construct: gene gap; full-length, 356 residues, N-terminal His6 tag and TEV site (tag removal not described), pET21b, E. coli Rosetta(DE3)pLysS; homotetramer
Kind of data set: X-ray crystal structure, […] Å. It is filed as binding. Conditions: crystallised with 0.6 mM NAD+, 0.1 M sodium citrate pH 5.5, 20% PEG 3000; one NAD+ per protomer, active site.

For data set [2], the system named is O=CC(O)COP(=O)(O)O. Kind of data set: purified protein. Conditions: 40 mM Tris-HCl pH 8.5, 2 mM EDTA, 25 °C, 0.1 μM enzyme, G3P varied 0.6-15 mM, co-substrates NAD+ and Pi, fixed concentrations not given.
The test system of data set [3] is NC(=O)c1ccc[n+]([C@@H]2O[C@H](COP(=O)(O)OP(=O)(O)OC[C@H]3O[C@@H](n4cnc5c(N)ncnc54)[C@H](O)[C@@H]3O)[C@@H](O)[C@H]2O)c1. Kind of data set: purified protein. Conditions: 40 mM Tris-HCl pH 8.5, 2 mM EDTA, 25 °C, 0.1 μM enzyme, NAD+ varied 0.03-2 mM, co-substrates G3P and Pi, fixed concentrations not given, varied: cofactor.
Data set [4] deals with the molecule itself. Kind of data set: crystal structure.

For `NC(=O)c1ccc[n+]([C@@H]2O[C@H](COP(=O)(O)OP(=O)(O)OC[C@H]3O[C@@H](n4cnc5c(N)ncnc54)[C@H](O)[C@@H]3O)[C@@H](O)[C@H]2O)c1` [NAD^+], in data set [1], the “X-ray crystal structure, 2.19 Å” value is reported as “NAD^+ molecules are tightly bound in an elongated cleft in all four protomers”.

In general, Km refers to the concentration of substrate that gives half-maximal velocity. What is called Vmax is the rate approached at saturating substrate. A word on the kcat: it is the number of substrate molecules converted per active site and unit of time at saturation. Broadly, the kcat/Km is the second-order rate constant that governs catalysis at low substrate concentration. For AvGAPDH (Fannyhessea vaginae DSM 15829), in data set [2], the Michaelis-Menten constant (Km) came out at 2600 ± 500 µM, the maximal velocity (Vmax) was 342000 µM/min/mg, the catalytic constant (kcat) is 57 ± 6 s⁻¹ and the specificity constant (kcat/Km) turned out to be 22000 ± 5000 M⁻¹ s⁻¹. In data set [3], the Km stood at 80 ± 30 µM, the maximum rate (Vmax) was determined as 186000 µM/min/mg, the turnover number (kcat) amounted to 31 ± 3 s⁻¹ and the kcat/Km worked out at 384000 ± 150000 M⁻¹ s⁻¹.

B1: D-glyceraldehyde-3-phosphate dehydrogenase from Atopobium vaginae, full-length, hexahistidine-tagged (enzyme)
chain: MKEDRLPANLAKGESMAVKVAINGFGRIGRLAFRQMFGHEGSEIVAINDLTDPKMLANLLKYDSSQGNYARNHSVVAGEDSITVDGKTIKIYKEADAHNLPWGELNVDVVLECTGFYTSKAKAQAHIDAGAKKVVISAPAGKDLPTIVYNVNHEILTKDDNIISAASCTTNCLAPMAKALNDFAPIQSGIMSTIHAFTGDQMVLDGPHRKGDLRRARAAAINIVPNSTGAAKAIGLVIPELNGKLIGSAQRVPVPTGSTTLLFAVVKSDKEITVDSINAAMKAASDPETFGYNEDPIVSSDIIGMTYGSLFDATQTMVQDLGNGLYQVEVVSWYDNENSYTSQMVRTIKYFEKFVA
notes: also called AvGAPDH; GAPDH from A. vaginae; source: E. coli Rossetta(DE3)pLysS, purified (HisTrap, Superdex 200)
Broadly, the stoichiometry N is a count of units in the complex or per binding partner. With B1, in data set [4], the “stoichiometry N” value stood at 4.
